Laboratory results taken from US20170240648A1 (KOLLTAN PHARMACEUTICALS, published 2017).

Legend:
[1] = target: T1, ErbB3 extracellular domain, His-tagged (human, UniProt P21860 20-643); test: SPR (BIAcore T100, 25 C), 2C2 Fab immobilised on CM5 chip, ErbB3 ECD in flow
T1 construct: Expressed in baculovirus-infected Sf9 cells and de-glycosylated for crystallography; also called ErbB3-ECD; ErbB3 ECD; not shown: C-terminal hexa-histidine tag, told in words only

[2] = target: T2, ErbB3 domain III, His-tagged (human, UniProt P21860 329-521); test: SPR (BIAcore T100, 25 C), 2C2 Fab immobilised on CM5 chip, ErbB3 domain III in flow
T2 construct: also called purified domain III; D3; not shown: His tag

[3] = target: T3, ErbB3 domain II, His-tagged (human, UniProt P21860 202-328); test: ELISA, His-tagged ErbB3 domain II coated on the plate, 2C2 titrated, HRP anti-human secondary antibody, chemiluminescence
T3 construct: also called D2; not shown: His tag

[4] = target: T4, ErbB3 domain IV, His-tagged (human, UniProt P21860 522-643); test: ELISA, His-tagged ErbB3 domain IV coated on the plate, 2C2 titrated, HRP anti-human secondary antibody, chemiluminescence
T4 construct: also called D4; not shown: His tag

[5] = target: T2, ErbB3 domain III, His-tagged; test: ELISA, His-tagged ErbB3 domain III coated on the plate, 2C2 titrated, HRP anti-human secondary antibody, chemiluminescence
[6] = target: T5, cell-surface expressed ErbB3 (Homo sapiens (Human), UniProt P21860 20-1342); test: flow cytometry, Alexa-647-labelled 2C2 titrated on BaF3 cells co-expressing ErbB2 and ErbB3, on ice; single-site binding isotherm
T5 construct: also called HER3

[7] = target: T6, ErbB3 domain I, His-tagged (human, UniProt P21860 20-201); test: ELISA, His-tagged ErbB3 domain I coated on the plate, 2C2 titrated, HRP anti-human secondary antibody, chemiluminescence
T6 construct: also called D1; not shown: His tag

[8] = target: T1, ErbB3 extracellular domain, His-tagged; test: SPR (BIAcore T100), Fab immobilised on a CM5 chip, ErbB3-ECD passed over in rising concentrations, long dissociation, 1:1 binding model

B1: 2C2 Fab (Fab, V domains shown)
VH: EVQLLESGGGLVQPGGSLRLSCAASGFTFSYYYMQWVRQAPGKGLEWVSYIGSSGGVTNYADSVKGRFTISRDNSKNTLYLQMNSLRAEDTAVYYCARVGLGDAFDIWGQGTMVTVSS
VL: QSVLTQPPSASGTPGQRVTISCSGSLSNIGLNYVSWYQQLPGTAPKLLISRNNQRPSGVPDRFSGSKSGTSASLAISGLRSEDEADYYCAAWDDSPPGEAFGGGTKLTVL
notes: Fab expressed in E. coli (pET26b, pelB signal peptide); also called Fab fragment of 2C2; Fab 2C2
Binder B1 has a Kd [1] of 0.166 nM and a Kd [2] of 0.377 nM.

B2: 2C2 antibody (whole antibody used in the examples was 2C2-YTE) (antibody, V domains shown)
VH: EVQLLESGGGLVQPGGSLRLSCAASGFTFSYYYMQWVRQAPGKGLEWVSYIGSSGGVTNYADSVKGRFTISRDNSKNTLYLQMNSLRAEDTAVYYCARVGLGDAFDIWGQGTMVTVSS
VL: QSVLTQPPSASGTPGQRVTISCSGSLSNIGLNYVSWYQQLPGTAPKLLISRNNQRPSGVPDRFSGSKSGTSASLAISGLRSEDEADYYCAAWDDSPPGEAFGGGTKLTVL
notes: Whole anti-ErbB3 antibody of WO 2013/078191
B2 was tested, and the binding result [3] was “no binding (tested: about 60 nM (log nM about 1.8))”, the binding result [4] was “no binding (tested: about 60 nM (log nM about 1.8))” and the “EC50 (read off the curve)” value [5] was about 0.5 nM. The Kd [6] was 0.08 nM and the binding result [7] was “no binding (tested: about 60 nM (log nM about 1.8))”.

B3: S23R Fab (Fab, V domains shown)
VH: EVQLLESGGGLVQPGGSLRLSCAASGFTFSYYYMQWVRQAPGKGLEWVSYIGSSGGVTNYADSVKGRFTISRDNSKNTLYLQMNSLRAEDTAVYYCARVGLGDAFDIWGQGTMVTVSS
VL: QSVLTQPPSASGTPGQRVTISCRGSLSNIGLNYVSWYQQLPGTAPKLLISRNNQRPSGVPDRFSGSKSGTSASLAISGLRSEDEADYYCAAWDDSPPGEAFGGGTKLTVL
notes: 2C2 Fab variant with serine to arginine at residue 23 of the light chain (CDR1); also called S23R Fab antibody
B3 was tested, and the koff [8] was 8.3e-05 s⁻¹.

B4: S25H Fab (Fab, V domains shown)
VH: EVQLLESGGGLVQPGGSLRLSCAASGFTFSYYYMQWVRQAPGKGLEWVSYIGSSGGVTNYADSVKGRFTISRDNSKNTLYLQMNSLRAEDTAVYYCARVGLGDAFDIWGQGTMVTVSS
VL: QSVLTQPPSASGTPGQRVTISCSGHLSNIGLNYVSWYQQLPGTAPKLLISRNNQRPSGVPDRFSGSKSGTSASLAISGLRSEDEADYYCAAWDDSPPGEAFGGGTKLTVL
notes: 2C2 Fab variant with serine to histidine at residue 25 of the light chain (CDR1), made by QuikChange mutagenesis; also called S25H Fab antibody
In the case of B4, the koff [8] is reported as 5.5e-05 s⁻¹.
